Data as given in publication PMC3154423.

What was measured:
Assay in all cases: ITC
[1] = biological target: Jun bZIP R261A;Fos bZIP K148A (human;human, UniProt P05412;P01100 252-315;137-200, R261A|K148A)
[2] = biological target: Jun bZIP K258A;Fos bZIP R155A (human;human, UniProt P05412;P01100 252-315;137-200, K258A|R155A)
[3] = biological target: Jun bZIP R263A;Fos bZIP R143A (human;human, UniProt P05412;P01100 252-315;137-200, R263A|R143A)
[4] = biological target: Jun bZIP R272A;Fos bZIP K148A (human;human, UniProt P05412;P01100 252-315;137-200, R272A|K148A)
[5] = biological target: Jun bZIP K258A;Fos bZIP R158A (human;human, UniProt P05412;P01100 252-315;137-200, K258A|R158A)
Chain of Jun bZIP K258A;Fos bZIP R158A (P05412 252-315 K258A, chain 1 of 2): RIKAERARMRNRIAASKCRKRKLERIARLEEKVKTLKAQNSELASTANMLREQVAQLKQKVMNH
Chain of Jun bZIP K258A;Fos bZIP R158A (P01100 137-200 R158A, chain 2 of 2): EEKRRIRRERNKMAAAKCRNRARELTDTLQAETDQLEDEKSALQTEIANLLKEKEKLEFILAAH

Chain of Jun bZIP R272A;Fos bZIP K148A (P05412 252-315 R272A, chain 1 of 2): as the sequence (P05412 252-315 K258A, chain 1 of 2) above, with A7K, R21A counted along it
Chain of Jun bZIP R272A;Fos bZIP K148A (P01100 137-200 K148A, chain 2 of 2): as the sequence (P01100 137-200 R158A, chain 2 of 2) above, with K12A, A22R counted along it
Chain of Jun bZIP R263A;Fos bZIP R143A (P05412 252-315 R263A, chain 1 of 2): as the sequence (P05412 252-315 K258A, chain 1 of 2) above, with A7K, R12A counted along it
Chain of Jun bZIP R263A;Fos bZIP R143A (P01100 137-200 R143A, chain 2 of 2): as the sequence (P01100 137-200 R158A, chain 2 of 2) above, with R7A, A22R counted along it
Chain of Jun bZIP K258A;Fos bZIP R155A (P05412 252-315 K258A, chain 1 of 2): as the sequence (P05412 252-315 K258A, chain 1 of 2) above
Chain of Jun bZIP K258A;Fos bZIP R155A (P01100 137-200 R155A, chain 2 of 2): as the sequence (P01100 137-200 R158A, chain 2 of 2) above, with R19A, A22R counted along it
Chain of Jun bZIP R261A;Fos bZIP K148A (P05412 252-315 R261A, chain 1 of 2): as the sequence (P05412 252-315 K258A, chain 1 of 2) above, with A7K, R10A counted along it
Chain of Jun bZIP R261A;Fos bZIP K148A (P01100 137-200 K148A, chain 2 of 2): as the sequence (P01100 137-200 R158A, chain 2 of 2) above, with K12A, A22R counted along it

B1: TRE duplex 15-mer (dsDNA)
DNA 1: CGCGTGACTCACCCC
DNA 2: GGGGTGAGTCACGCG
For B1, the Kd [1] was 950 ± 60 nM, the Kd [2] was 5380 ± 120 nM and the Kd [3] was 2250 ± 50 nM. It also gave a Kd [4] of 710 ± 20 nM and a Kd [5] of 960 ± 60 nM.
